Article PMC12501251 (Communications Biology, 2025)

What was measured:
Experiment in all cases: ELISA
[1] = target: N3 NA (head domain plus stalk region) from A/swine/Missouri/2124514/2006 (H2N3) (Influenza A virus …, UniProt A9YN63, strain)
[2] = target: N8 NA (head domain plus stalk region) from A/gyrfalcon/41088-6/2014 (H5N8) (Influenza A virus …, UniProt A0A0C4WVM3, strain)
[3] = target: T1, N2 NA head domain from A/Japan/305/1957 (H2N2) (Influenza A virus A/Japan/305/1957 …, strain)
T1 chain: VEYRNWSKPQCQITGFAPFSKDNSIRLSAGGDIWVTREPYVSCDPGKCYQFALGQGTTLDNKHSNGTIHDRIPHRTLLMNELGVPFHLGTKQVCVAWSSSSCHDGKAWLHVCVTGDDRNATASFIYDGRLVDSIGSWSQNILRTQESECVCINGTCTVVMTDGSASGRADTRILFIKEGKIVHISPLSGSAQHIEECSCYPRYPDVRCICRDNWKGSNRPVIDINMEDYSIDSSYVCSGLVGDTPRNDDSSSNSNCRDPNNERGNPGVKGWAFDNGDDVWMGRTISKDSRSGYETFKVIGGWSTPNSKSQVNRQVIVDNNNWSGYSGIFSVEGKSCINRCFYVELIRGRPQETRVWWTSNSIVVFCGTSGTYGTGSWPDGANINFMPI

[4] = target: N1 NA head domain (residue 82-469) from A/Brevig Mission/1/1918 (H1N1) (Influenza A virus A/Brevig …, UniProt Q9IGQ6)
N1 NA head domain (residue 82-469) from A/Brevig Mission/1/1918 (H1N1), sequence (Q9IGQ6 82-469): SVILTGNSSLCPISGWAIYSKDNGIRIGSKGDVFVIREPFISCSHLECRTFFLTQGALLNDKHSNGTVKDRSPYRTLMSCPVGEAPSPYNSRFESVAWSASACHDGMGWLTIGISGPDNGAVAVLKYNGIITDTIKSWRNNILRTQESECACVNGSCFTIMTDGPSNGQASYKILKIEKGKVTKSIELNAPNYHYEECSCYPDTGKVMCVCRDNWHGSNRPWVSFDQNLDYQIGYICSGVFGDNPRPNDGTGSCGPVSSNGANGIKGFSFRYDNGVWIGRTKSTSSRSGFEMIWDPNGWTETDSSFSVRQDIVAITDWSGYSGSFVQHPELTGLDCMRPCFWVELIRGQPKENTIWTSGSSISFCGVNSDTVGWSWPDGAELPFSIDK

Measured: binding result

B1: 1122A11 (human IgG1 mAb) (antibody, V domains shown)
VH: QVQLVQSGAEVSKPGASVKVSCKASGYSFTSQSLGWVRQAPGQGLEWMGIINPSGGITNYAHKFQGRVTMTRDTSTSTVYMELSSLRSEDTALYYCVRDLSHYNEVGHDRAYYYGMDIWGQGTTVTVSS
VL: SYELIQPPSVSVSPGQTASITCSGDKLGKKYTCWYQQKPGQSPVLVIYQDNKRPSGIPERFSGSNSGNTATLTISGTQAMDEADYYCQAWDSSAVVFGGGTKLTVL
binds: all assays above
